The values that follow come from PMC8857485, “Prostate secretory protein 94 inhibits sterol binding and export by the mammalian CAP protein CRISP2 in a calcium-sensitive manner” (The Journal of Biological Chemistry, 2022).

Broadly, the Kd is the free concentration of one partner at which half of the binding sites on the other are occupied at equilibrium, for simple one-to-one binding.

Substitutions are numbered along the chain they refer to. Names may count otherwise. Like-named read-outs stand apart in the source and are kept apart here.

One experiment addresses cholesterol sulfate. Briefly: microscale thermophoresis. To be noted: measurements in triplicates. (In general: In MST a laser heats a spot of the sample, and binding alters the fluorescence response.)
Experiment [1] addresses T1, prostate secretory protein of 94 amino acids (PSP94), C-terminal polyhistidine tag (human, UniProt P08118 21-114).
T1 chain: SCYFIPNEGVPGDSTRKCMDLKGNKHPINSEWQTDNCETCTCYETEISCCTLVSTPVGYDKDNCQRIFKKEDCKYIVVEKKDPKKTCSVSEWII
The experiment is described as follows: MST.

The subject of experiment [2] is sterol export by CAP proteins (Pry1, CRISP2, CRISP3). The experiment is described as follows: In vivo sterol export assay ([14C]cholesteryl acetate export) in yeast. To be noted: co-expression with CRISP2 in quadruple mutant yeast. Format: cell-based, Saccharomyces cerevisiae. The text has this: To test whether expression of PSP94 would affect the function of Pry1 in sterol export, we expressed PSP94 fused to the N-terminal signal sequence from Pry1 (amino acids 1–19) from a constitutive alcohol dehydrogenase promoter (ADH1) to direct the protein into the yeast secretory pathway. This PSP94-containing plasmid was then transformed into heme-deficient yeast cells lacking the sterol deacetylase Say1 (hem1Δ say1Δ). This strain is able to take up radiolabeled [^14C]cholesterol, acetylate it in an alcohol acetyltransferase 2 (Atf2)-dependent pathway, and secrete the resulting radiolabeled cholesteryl acetate back into the culture medium ([29]). […] To test whether expression of PSP94 would affect the synthesis or secretion of Pry1, CRISP2, or CRISP3, we coexpressed FLAG-tagged PSP94 with hemagglutinin (HA)-tagged Pry1, CRISP2, or CRISP3, separated yeast cells from the culture medium, precipitated proteins from both fractions with trichloroacetic acid (TCA), and detected the tagged proteins by Western blotting.
The sterol export assay was performed as described ([29]). […] Extracted radiolabeled lipids were quantified by scintillation counting, and volumes corresponding to 10,000 cpm (counts per minute) were dried. […] TLC plates were then exposed to phosphorimager screens, and radiolabeled lipids were visualized and quantified using a phosphorimager. […]

Experiment [3] has as its target T1, prostate secretory protein of 94 amino …. The experiment is described as follows: MST.
The mark [4] stands for this setting: cholesterol sulfate titrated (x axis Cholesterol sulfate [µM]).

In the experiment with cholesterol sulfate (setting [4]), “CRISP2 (cysteine-rich secretory protein 2), C-terminal polyhistidine tag (from UniProt P16562) N97P; L98G” showed a Kd of 3.8 µM.

With “CRISP2 (cysteine-rich secretory protein 2), C-terminal polyhistidine tag (from UniProt P16562) L98G; Y99P”, the Kd came out at 0.5 µM with cholesterol sulfate (in the presence of PSP94) and 2.2 µM with cholesterol sulfate (setting [4]). In the experiment with cholesterol sulfate (setting [4]), “CRISP2 (cysteine-rich secretory protein 2), C-terminal polyhistidine tag (from UniProt P16562) N97P; Y99P” displayed a dissociation constant Kd of 2.7 µM.

B1: CAP domain of Pry1 (Pry1^CAP), C-terminal polyhistidine tag (domain or fragment)
chain: SASSSDSDLSDFASSVLAEHNKKRALHKDTPALSWSDTLASYAQDYADNYDCSGTLTHSGGPYGENLALGYDGPAAVDAWYNEISNYDFSNPGFSSNTGHFTQVVWKSTTQVGCGIKTCGGAWGDYVICSYDPAGNYEGEYADNVEPLA
modifications: RED-tris-NTA fluorescent label on the His tag
As for B1, the affinity in experiment [1], expressed as Kd, was 63 nM.

B2: PSP94^F24G: point mutant version of PSP94 (F24 corresponds to F4 in the processed protein), impaired binding to CRISP3 (protein)
chain: T1 chain with F4G
modifications: left off: polyhistidine, C-terminal, state not stated
For B2, the “effect on sterol binding and export by CRISP2 in vivo” value in experiment [2] is “did not inhibit sterol binding and export”.

B3: CRISP3 (cysteine-rich secretory protein 3), C-terminal polyhistidine tag (natural protein)
chain: NEDKDPAFTALLTTQTQVQREIVNKHNELRRAVSPPARNMLKMEWNKEAAANAQKWANQCNYRHSNPKDRMTSLKCGENLYMSSASSSWSQAIQSWFDEYNDFDFGVGPKTPNAVVGHYTQVVWYSSYLVGCGNAYCPNQKVLKYYYVCQYCPAGNWANRLYVPYEQGAPCASCPDNCDDGLCTNGCKYEDLYSNCKSLKLTLTCKHQLVRDSCKASCNCSNSIY
modifications: RED-tris-NTA fluorescent label on the His tag
As for B3, in experiment [1], the affinity, expressed as Kd, was 46 nM.

B4: CRISP2 N97P L98G (protein)
chain: KDPAFTALLTTQLQVQREIVNKHNELRKAVSPPASNMLKMEWSREVTTNAQRWANKCTLQHSDPEDRKTSTRCGEPGYMSSDPTSWSSAIQSWYDEILDFVYGVGPKSPNAVVGHYTQLVWYSTYQVGCGIAYCPNQDSLKYYYVCQYCPAGNNMNRKNTPYQQGTPCAGCPDDCDKGLCTNSCQYQDLLSNCDSLKNTAGCEHELLKEKCKATCLCENKIY
modifications: limits not printed: mature chain by convention (pelB secretion in E. coli, C-terminal His tag left out); residue numbers match the precursor
For B4, the dissociation constant (Kd) in experiment [3] was determined as 4 nM.
